No end group written: not given here.
Target: T1, PACAP-R3 (human, UniProt P41587 24-438)
T1 sequence (looked up): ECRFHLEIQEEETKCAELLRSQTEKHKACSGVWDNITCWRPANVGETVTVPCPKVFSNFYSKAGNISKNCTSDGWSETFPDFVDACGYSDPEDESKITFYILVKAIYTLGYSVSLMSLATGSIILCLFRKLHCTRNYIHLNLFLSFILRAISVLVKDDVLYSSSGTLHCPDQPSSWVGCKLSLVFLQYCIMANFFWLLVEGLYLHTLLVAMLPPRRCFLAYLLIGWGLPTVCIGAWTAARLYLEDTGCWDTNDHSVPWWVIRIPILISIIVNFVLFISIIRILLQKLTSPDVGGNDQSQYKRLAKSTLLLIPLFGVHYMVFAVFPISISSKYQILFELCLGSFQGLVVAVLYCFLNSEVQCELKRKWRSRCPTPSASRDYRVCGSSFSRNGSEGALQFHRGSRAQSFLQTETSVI
Assay: cell-based or functional assay

HSDAVFTDNYTRLRKQVAVKKYLQSILKKRY [R3P87]
R3 EC50: 200 pM
R3 Selectivity: 3

HSDAVFTDNYTRLRKQVAAKKYLQSILKKR [R3P84]
R3 EC50: 60 pM
R3 Selectivity: 40

HSDAVFTDNYTRLRKQMAKKKYLNSIKNKR [R3P104]
R3 EC50: 200 pM
R3 Selectivity: 500

HSDAVFTDNYTRLRKQVAVKKYLQSIKKK [R3P81]
R3 EC50: 500 pM
R3 Selectivity: 100

HSDAVFTDNYTRLRKQVAAKKYLQSIKKKR [R3P77]
R3 EC50: 400 pM
R3 Selectivity: 500

HSDAVFTDNYTRLRKQMALKKYLNSIKNKR [R3P105]
R3 EC50: 300 pM
R3 Selectivity: 3

HSDAVFTDNYTRLRKQVAAKKYLQSIKNK [R3P86]
R3 EC50: 800 pM
R3 Selectivity: 110

HSDAVFTDNYTRLRKQVAVKKYLQSIKKKR [R3P80]
R3 EC50: 440 pM

HSDAVFTDNYTRLRKQVAAKKYLQSILKK [R3P85]
R3 EC50: 180 pM
R3 Selectivity: 30

HSDAVFTDNYTRLRKQMAPKKYLNSIKNKR [R3P108]
R3 EC50: 300000 pM
R3 Selectivity: 3

HSDAVFTDNYTRLRKQVAVKKYLQSILKKR [R3P88]
R3 EC50: 80 pM
R3 Selectivity: 12

HSDAVFTDNYTRLRKQVAAKKYLNSIKKKR [R3P78]
R3 EC50: 1100 pM
R3 Selectivity: 230

HSDAVFTDNYTRLRKQMAVKKYLNSIKK-NH2 [R3P8]
R3 EC50: 1400 pM
R3 Selectivity: 1.5

HSDAVFTDNYTRLRKQVAAKKYLNSIKNKRY [R3P68]
R3 EC50: 500 pM

HSDAVFTDNYTRLRKQVAAKKYLQSILNKRY [R3P92]
R3 EC50: 20 pM
R3 Selectivity: 100

HSDAVFTDNYTRLRKQVAVKKYLQSIKNKRY [R3P82]
R3 EC50: 400 pM
R3 Selectivity: 23

HSDAVFTDQYTRLRKQMAAKKYLNSIKNKRY [R3P71]
R3 EC50: 90 pM
R3 Selectivity: 660

HSDAVFTDNYTRLRKQVAAKKYLNSIKNKRY [R3P79]
R3 EC50: 500 pM

HSDAVFTDNYTRLRKQMAAKKYLQSIKNKRY [R3P69]
R3 EC50: 500 pM
R3 Selectivity: 190

HSDAVFTDNYTRLRKQMAAKKYLNTIKNKRY [R3P70]
R3 EC50: 400 pM
R3 Selectivity: > 250

HSDAVFTDNYTRLRKQMAAHKYLNSIKNKRY [R3P73]
R3 EC50: 300 pM
R3 Selectivity: 170

HSDAVFTDQYTRLRKQLAAKKYLNTIKNKRY [R3P72]
R3 EC50: 160 pM
R3 Selectivity: > 600

HSDAVFTDNYTRLRKQMAAKHYLNSIKNKRY [R3P74]
R3 EC50: 600 pM
R3 Selectivity: 150

HSDAVFTDNYTRLRKQVAAKKYLQSILKKRY [R3P83]
R3 EC50: 80 pM
R3 Selectivity: 60

HSDAVFTDNYTRLRKQMAFKKYLNSIKNKR [R3P100]
R3 EC50: 300 pM
R3 Selectivity: 30

HSDAVFTDNYTRLRKQMAQKKYLNSIKNKR [R3P109]
R3 EC50: 10000 pM
R3 Selectivity: 100

HSDAVFTENYTKLRKQLAAKKYLNDLKK [R3P5]
R3 EC50: 7000 pM
R3 Selectivity: 30

HSDAVFTDNYTRLRKQVAAKKYLQSILNK [R3P94]
R3 EC50: 90 pM
R3 Selectivity: 100

HSDAVFTDNYTRLRKQMAEKKYLNSIKNKR [R3P99]
R3 EC50: 1000 pM
R3 Selectivity: 40

HSDAVFTDNYTRLRKQMANKKYLNSIKNKR [R3P107]
R3 EC50: 200000 pM

HSDAVFTDQYTRLRKQLAAHKYLNTIKNKRY [R3P75]
R3 EC50: 300 pM
R3 Selectivity: > 500

HSDAVFTDNYTRLRKQMAVKKYLNSIKKGGT [R3P9]
R3 EC50: 2000 pM
R3 Selectivity: 20

HSDAVFTENYTKLRKQLAAKKYLNDLLNGGT [R3P10]
R3 EC50: 11000 pM
R3 Selectivity: 0.3

HSDAVFTDNYTRLRKQMAGKKYLNSIKNKR [R3P101]
R3 EC50: 1000 pM
R3 Selectivity: 400

HSDAVFTDNYTRLRKQVAAKKYLQSILNKR [R3P93]
R3 EC50: 140 pM
R3 Selectivity: 40

HSDAVFTDNYTRLRKQMAHKKYLNSIKNKR [R3P102]
R3 EC50: 60000 pM
R3 Selectivity: 5

HSDAVFTDNYTRLRKQMAIKKYLNSIKNKR [R3P103]
R3 EC50: 50 pM
R3 Selectivity: 8

HSDAVFTDNYTRLRKQMARKKYLNSIKNKR [R3P110]
R3 EC50: 500 pM
R3 Selectivity: 200

HSDAVFTDNYTRLRKQVAVKKYLQSILKK [R3P89]
R3 EC50: 60 pM
R3 Selectivity: 15

Reference: US6972319B1, “Pituitary adenylate cyclase activating peptide (PACAP)receptor 3 (R3) agonists and their pharmacological methods of use” (priority 1999, dated 2005)
